B1: motavizumab (antibody, V domains shown)
VH: QVTLRESGPALVKPTQTLTLTCTFSGFSLSTAGMSVGWIRQPPGKALEWLADIWWDDKKHYNPSLKDRLTISKDTSKNQVVLKVTNMDPADTATYYCARDMIFNFYFDVWGQGTTVTVSS
VL: DIQMTQSPSTLSASVGDRVTITCSASSRVGYMHWYQQKPGKAPKLLIYDTSKLASGVPSRFSGSGSGTEFTLTISSLQPDDFATYYCFQGSGYPFTFGGGTKVEIK
B2: mAb D25 (antibody, V domains shown)
VH: QVQLVQSGAEVKKPGSSVMVSCQASGGPLRNYIINWLRQAPGQGPEWMGGIIPVLGTVHYAPKFQGRVTITADESTDTAYIHLISLRSEDTAMYYCATETALVVSTTYLPHYFDNWGQGTLVTVSS
VL: DIQMTQSPSSLSAAVGDRVTITCQASQDIVNYLNWYQQKPGKAPKLLIYVASNLETGVPSRFSGSGSGTDFSLTISSLQPEDVATYYCQQYDNLPLTFGGGTKVEIKR
B3: mAb 14C16 (antibody, V domains shown)
VH: QVQLGESGPALVKPTQTLTLTCTFSGFSLSTSEMCVSWIRQPPGKALEWLALIDWDGDKFFSTSLQSRLTISKSPSNNQVVLTMTNMDPVDSGTYFCARSTVRRSSGYYYYVLDVWGQGTLVTVSS
VL: QIVMTQSPSSLSASVGDRVTISCRASQSIGTYVNWYQHKPGKAPKVLISGASNLHSGVPSRFSGSGSGTDFTLTISSLQPEDFATYYCQQSYSPLTFGGGTTVEMK
B4: mAb 4B6 (antibody, V domains shown)
VH: QVQLVQSGGGLAQPGRSLRLSCRASGFTFGDFNMNWFRQAPGKGLEWVGFIRRKAFGGATEYAASVKGRLTISRDDSKSIAYLQMNSLKTEDTAVYYCTRERGYVGSGGPFFDYWGQGTLVTVSS
VL: QAVVTQPPSVSGAPGQRVTISCTGSSSNIGAGYDVHWYQQLPGTAPKLLIYGDSNRPSGVPDRFSGSSSGTSASLAITGLQAEDEADYYCQSYDNSLSGSVFGTGTKVTVL
B5: mAb 9J5 (antibody, V domains shown)
VH: QVQLVQSGAEVKKPGSSVTVSCKASGGSFTNYAFSWVRQAPGQGLEWMGGIIPLLNMPNYAQKFRGRVTISADQSTTTAYMELSRLTSEDTAIYFCARGGQVGDFIVLRHFDSWGQGTLVTVSS
VL: TLSCRASESVSNYLAWYQQKPGQTPRLLIYGASTRATGIPARFSGSGSGSEFTLTISSLQSEDFAVYYCQQYNDWPRFSFGQGTKLEIK
B6: mAb 12I1 (antibody, V domains shown)
VH: QVQLVQSGGGVVQPGQSLRLSCAASGFSFSDYPIHWVRQAPGKGLEWVAGISYYGSNKFYADSVRGRFTISRDTSKNTFNLQMNSLKSEDTAVYYCARDGNPPRFLEYFDYWGQGTLVTVSS
VL: QPVVTQPRSVSGSPGQSVTISCTGSSSDVGGYNFVSWYRHHPGKAPKLLIYHVTKRPSGVPDRFSGSKSGNTASLTISGLQAEDEADYYCCSYAGSYTYVLFGGGTKLTVL
notes: Non-neutralizing, antigenic site VII
B7: mAb 14N4 (antibody, V domains shown)
VH: QVQLVESGGGLIQPGGSLRLSCAVSGFTVSSKYMTWVRQAPGKGLEWVSVIYGGGSTYYADSVVGRFTISRDNSKNTLYLQMNSLRAEDTAVYYCASRLGVRATTGDLDYWGQGTLVTVSS
VL: QIVMTQSPSTLSASVGDRVTITCRASQSISSWLAWYQQKPGKAPKLLIYDASSLESGVPSRFSGSGSGTEFTLTISSLQPDDFATYYCQQYNTYSWWTFGQGTKVEIK
B8: mAb 13A8 (antibody, V domains shown)
VH: QVQLVESGGGVVQPGKSLRLSCAASGYIFSSYDMHWVRQAPGKGLEWVAVISFDGTTQHYADSVRGRFTVSRDNSQNTVFLQMNSLRPEDTAVYYCVKEYVIVSTFFDYWGQGTLVTVSS
VL: DIVMTQSPSSLSASVGDRVTITCRASQGIRNALGWYQHKPGKAPKVLIYAASRLQSGVPSRFSGSGSGTDFTLTISSLQPEDFATYYCLQDFNYPWTFGHGTKVEIK
B9: mAb 3J20 (antibody, V domains shown)
VH: EVQLVESGGGLVQPGGSLRLSCAASGFTFSSFTMNWVRQAPGKGLQWVSTISGSGGLTYYADSVKGRFTISRDNSKNTLSLQMNSLRAEDTAVYYCARDLEFTVTSYGGYYFEYWGQGTLVTVSS
VL: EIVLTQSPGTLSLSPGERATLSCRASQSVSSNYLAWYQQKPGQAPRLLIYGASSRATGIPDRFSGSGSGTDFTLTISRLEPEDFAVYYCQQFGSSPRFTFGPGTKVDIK
B10: mAb 10F13 (antibody, V domains shown)
VH: QVQLVQSGGGVVQPGRSLRLSCAASGFPFRIYSMHWVRQAPGKGLEWVALISYDGTNKQYADSVNGRFTISRDNSENTMYLQMNSLRPEDTAIYYCATDIVELVTATDYWGQGTLVTVSS
VL: AVVTQSPGTLSLSPGDRATLSCRASQSVSTSLGWYQQKPGQSPRLLIYGTSRRATGVPDRFSGSGSETDFTLTISRLEPEDFSVYYCQQYGSSPYTFGQGTRLEIK
notes: The printed light chain has an unusual N-terminal part

What was measured:
[1] = target: F protein on infectious RSV strain A2 (human respiratory syncytial virus …, UniProt P03420 26-574); experiment: cell-based or functional assay
Target sequence in this assay (P03420 26-574): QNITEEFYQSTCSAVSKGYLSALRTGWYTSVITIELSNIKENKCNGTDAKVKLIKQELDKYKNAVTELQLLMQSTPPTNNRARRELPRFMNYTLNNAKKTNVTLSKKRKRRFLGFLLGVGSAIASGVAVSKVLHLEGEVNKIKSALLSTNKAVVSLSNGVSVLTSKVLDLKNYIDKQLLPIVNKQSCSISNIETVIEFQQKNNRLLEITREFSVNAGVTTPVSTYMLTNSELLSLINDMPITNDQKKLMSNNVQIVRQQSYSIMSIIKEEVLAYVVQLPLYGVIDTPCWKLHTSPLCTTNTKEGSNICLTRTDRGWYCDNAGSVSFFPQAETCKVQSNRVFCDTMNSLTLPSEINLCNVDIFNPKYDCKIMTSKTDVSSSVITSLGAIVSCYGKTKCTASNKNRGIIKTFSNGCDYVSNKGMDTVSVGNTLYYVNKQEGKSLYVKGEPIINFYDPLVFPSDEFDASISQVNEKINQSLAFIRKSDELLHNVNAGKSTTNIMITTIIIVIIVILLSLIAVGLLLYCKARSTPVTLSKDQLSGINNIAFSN

[2] = target: T1, recombinant post-fusion RSV strain A2 F protein (human respiratory syncytial virus …, UniProt P03420 26-109; P03420 147-513); experiment: ELISA on coated antigen
T1 construct: Viral fusion glycoprotein, trimer of protomers (each cleaved into two disulfide-linked fragments); also called RSV A2; post-fusion RSV A2 F
T1 sequence (P03420 147-513, one chain of several): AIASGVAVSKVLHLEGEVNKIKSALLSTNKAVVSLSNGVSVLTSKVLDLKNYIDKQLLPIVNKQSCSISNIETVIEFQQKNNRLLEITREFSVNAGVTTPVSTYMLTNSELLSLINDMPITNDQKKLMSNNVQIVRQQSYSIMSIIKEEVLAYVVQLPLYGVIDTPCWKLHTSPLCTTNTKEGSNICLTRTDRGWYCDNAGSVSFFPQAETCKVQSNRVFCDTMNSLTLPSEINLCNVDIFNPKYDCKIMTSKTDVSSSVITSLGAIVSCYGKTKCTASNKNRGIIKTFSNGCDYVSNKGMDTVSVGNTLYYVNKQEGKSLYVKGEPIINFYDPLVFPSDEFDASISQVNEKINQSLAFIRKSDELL

[3] = target: T2, post-fusion F protein from RSV strain 18537 B (human respiratory syncytial virus …, UniProt P13843 26-109; P13843 147-513); experiment: ELISA on coated antigen
T2 construct: also called RSV 18537 B; RSV 18537 B post-fusion F
T2 sequence (P13843 26-109, chain 1 of 2): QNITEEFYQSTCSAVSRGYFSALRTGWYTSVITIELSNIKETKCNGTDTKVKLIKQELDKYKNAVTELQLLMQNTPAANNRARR
T2 sequence (P13843 147-513, chain 2 of 2): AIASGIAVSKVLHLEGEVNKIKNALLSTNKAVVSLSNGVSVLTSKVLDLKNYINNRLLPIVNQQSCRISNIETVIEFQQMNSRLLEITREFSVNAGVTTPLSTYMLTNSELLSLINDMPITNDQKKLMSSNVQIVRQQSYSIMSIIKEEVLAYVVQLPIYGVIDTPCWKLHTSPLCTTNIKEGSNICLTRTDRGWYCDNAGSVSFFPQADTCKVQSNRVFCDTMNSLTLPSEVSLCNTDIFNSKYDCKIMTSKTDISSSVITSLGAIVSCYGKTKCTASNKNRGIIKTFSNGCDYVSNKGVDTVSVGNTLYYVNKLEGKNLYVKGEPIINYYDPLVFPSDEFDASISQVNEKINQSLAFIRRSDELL

[4] = target: F protein on infectious RSV strain A2 (human respiratory syncytial virus …, UniProt P03420 26-574); experiment: cell-based or functional assay; remark: listed apart in the source
Target sequence in this assay (P03420 26-574): as the sequence (P03420 26-574) above

| Binder | Neutralization (IC50; ng/mL) RSV A2, plaque-reduction assay [1] | EC50 [2] | EC50 [3] | Neutralization (IC50; ng/mL) RSV A2, plaque-reduction assay [4] |
| --- | --- | --- | --- | --- |
| B1 | 123 ng/mL | 0.03 µg/mL | 0.035 µg/mL |  |
| B2 | 21 ng/mL |  |  |  |
| B3 |  | 0.019 µg/mL | 0.02 µg/mL | > 100000 ng/mL |
| B4 |  | 0.024 µg/mL | 0.024 µg/mL | > 100000 ng/mL |
| B5 |  | 0.03 µg/mL | 0.04 µg/mL | > 100000 ng/mL |
| B6 |  | 0.026 µg/mL | 0.033 µg/mL | > 100000 ng/mL |
| B7 |  | 0.078 µg/mL | 0.057 µg/mL | 695 ng/mL |
| B8 |  | 0.082 µg/mL | 0.064 µg/mL | 55 ng/mL |
| B9 |  | 0.084 µg/mL | 0.05 µg/mL | 377 ng/mL |
| B10 |  | 0.017 µg/mL | 0.021 µg/mL |  |
